Measurements taken from US10618964B2, “Nanobody against IL-6R” (Ablynx N.V., dated 2020).
Positions count from the first letter of the chain named.

B1: IL6RPMP103C4 (VHH)
VHH: EVQLVESGGGLVEAGGSLRLSCAAAGRTLSSYSMAWFRQAPGKEREFVAIIRGNPSRTYHSDSVKGRFTASRDNAKNTVYLQMNRLEPEDTAVYYCAADPPPFASDYSAPQSYDYWGQGTQVTVSS
B2: IL6RPMP105E1 (VHH)
VHH: EVQLVESGGGLVQAGGSLRLSCAASGSIFSIKAMGWYRQAPGKQRELVARITSGGSTYYADSVKGRFTISRDNAKNTVYLQMNSLKPEDTAVFYCNAIVTDSDYDLGNDYWGQGTQVTVSS
B3: IL6RPMP120A5 (VHH)
VHH: EVQLVESGGGLVQAGGSLSLSCATSGRTISDDTMAWFRQAPGKEREFVAIITFNGARTHYSDSVRDRFTISRDNAKNTVYLQMNSLKSEDTAVYYCAASTKYYSSTYNYIHPAFYDIWGQGTQVTVSS
B4: IL6RPMP103C7 (VHH)
VHH: B3 VHH with I50T, N54S, N84D
B5: IL6RPMP103C3 (VHH)
VHH: EVQLVESGGGLVQPGGSMRLSCAATGAIFSISTMGWYRQAPGAQREFVAGVGLDGTPNYADSVKGRFTISRDNTKNTVSLQMENLKPEDTGVYYCNIDEGMDYDGNFYDRWGQGTQVTVSS
B6: IL6RPMP108C9 (VHH)
VHH: EVQLVESGGGLVQAGGSLRLSCAASGRTYAMAWFRQAPGKEREFVAAISIVTDYADSVKGRFNISRDNRENTVYLQMNSLKPEDTAVYYCAANTYYSGAYFPRGHEWYEYWGQGTQVTVSS
B7: IL6RPMP103F2 (VHH)
VHH: EVQLVESGGGLVQAGGSLRLSCVASGHTSDTYIMAWFRQAPGKEREFVASILWDGSITYYADSVKDRFTISRDISRKTLYLQMNSLRPEDTATYTCARGIYFSRRYVDPGIYGTWGQGTQVTVSS
B8: IL6RPMP108E9 (VHH)
VHH: EVQLVESGGGLVQAGGSLRLSCAFSRRSFGNFPMGWFRQRPGEEREYVAVISWNNNYIHYRDSVKGRFTASRDTSENRMYLQMNGLKPEDTAVYYCAARTKDNTLFTPAEEYDYWGQGTQVTVSS
B9: IL6RPMP120G6 (VHH)
VHH: EVQLVESGGDLVQTGGSLRLSCAASGITVSDRAMGWYRQAPGKQREMVAGVSRGGMTSYADSVKGRLTISRDNAKNSVYLQMNSLNPEDTAVYYCSAYYRYGSSVPQYWGQGTQVTVSS
B10: IL6RPMP107A1 (VHH)
VHH: EVQLVESGGGLVQAGGSLNLSCNASGDIGSINAMGWYRQAPGQQREWVAVITDTDSTIYPDSVKGRFAISRDGAKNTVHLRMSSLKPEDTAVYYCNAYQAGWGDYWGQGTQVTVSS
B11: IL6RPMP108E1 (VHH)
VHH: EVQLVESGGGLVQAGGSLRLSCAASGFTFDDYDIGWFRQAPGKEREGVSGISSSDGNTYYADSVKGRFTISSDNAKNTVYLQMNSLKPEDTAVYYCAAEPPDSSWYLDGSPEFFKYWGQGTQVTVSS
B12: IL6RPMP103H9 (VHH)
VHH: EVQLVESGGGLVQPGGSLRLSCAASKSIFDINAMYWHRQAPGKQRESVASITSGGMRNYADSVKDRFTISKDNAKNTVYLQMNGLKPDDTAVYYCGLGRYEGGVWRDYWGQGTQVTVSS
B13: Reference Fab (Fab, V domains shown)
VH: QVQLQESGPGLVRPSQTLSLTCTVSGYSITSDHAWSWVRQPPGRGLEWIGYISYSGITTYNPSLKSRVTMLRDTSKNQFSLRLSSVTAADTAVYYCARSLARTTAMDYWGQGSLVTVSS
VL: DIQMTQSPSSLSASVGDRVTITCRASQDISSYLNWYQQKPGKAPKLLIYYTSRLHSGVPSRFSGSGSGTDFTFTISSLQPEDIATYYCQQGNTLPYTFGQGTKVEIKR

Target: cyno IL-6R on CHO-K1 cells (clone CyIL6R 405) (cynomolgus monkey; human-rhesus)
Experiment: FMAT competition; competitor Reference IgG-A647; CHO cells with cyno IL-6R
Settings: not given

Point of comparison: B2, IC50 13 nM. Against it:
- B1 — 2.3-fold higher, 30 nM
- B3 — 2.1-fold higher, 27 nM
- B4 — 5.8-fold higher, 75 nM

Target: T1, native soluble IL-6R in human plasma (human), P08887
T1 chain: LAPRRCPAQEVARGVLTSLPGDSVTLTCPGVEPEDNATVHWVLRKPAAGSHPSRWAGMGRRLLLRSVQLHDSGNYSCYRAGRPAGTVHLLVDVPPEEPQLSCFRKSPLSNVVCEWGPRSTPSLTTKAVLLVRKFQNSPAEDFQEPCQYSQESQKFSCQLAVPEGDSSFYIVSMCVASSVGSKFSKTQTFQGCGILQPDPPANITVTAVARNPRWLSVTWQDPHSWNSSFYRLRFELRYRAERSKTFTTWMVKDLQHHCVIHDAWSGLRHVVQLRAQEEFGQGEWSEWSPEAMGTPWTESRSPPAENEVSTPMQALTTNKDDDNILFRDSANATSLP
Experiment: ELISA 1, periplasmic extract; competitor IL-6; human plasma
Settings: remark: other sources report otherwise

Point of comparison: B6, OD450 ratio sample/blank 0.911. Against it:
- B5 — higher, 2.02
- B7 — higher, 1.95
- B8 — lower, 0.731

Target: T1, native soluble IL-6R in human plasma …
Experiment: ELISA 3, periplasmic extract; competitor BN-12; human plasma
Settings: remark: other sources report otherwise

Point of comparison: B5, OD450 ratio sample/blank 1.01. Against it:
- B6 — the same, 1.01
- B7 — lower, 0.993
- B8 — lower, 0.989

Target: T2, native soluble IL-6R in human plasma (human, UniProt P08887)
Experiment: plasma potency ELISA, purified Nanobody; competitor IL-6; human plasma
Settings: not given
Method: (§1) In this ELISA, plasma was used as a source of native soluble IL-6R. By this assay, we aimed to confirm the alphascreen results and to get a view on the cross-reactivity of the clones towards cynomolgous IL-6R. Human plasma (ELISA 1 and ELISA 3) or cynomolgous plasma (ELISA 2) were pre-incubated with a dilution of the periplasmic extract of the clones together with human IL-6 (50 ng/mL). Subsequently, plasma soluble IL-6R was captured on a B-N12 coated plate and bound IL-6 was detected using anti-IL-6 antibody BAF206 and streptavidin-HRP (ELISA 1 and ELISA 2). The ELISA signal dropped when the Nanobody clone could compete with IL-6 for binding to soluble IL-6R. ELISA 3 was a parallel ELISA in which the detection antibody was replaced by anti-IL-6R antibody BAF227 to exclude false positive competitors, which actually compete with B-N12 (e.g. family 2). Depicted in Table C-5 is the ratio of the OD450 value of the test sample versus the blank OD450 (mock sample). Clones were ordered based on ELISA 1 data.
(§2) A potency ELISA was done with the purified Nanobodies as described in Example 9. Here, different dilutions of each purified Nanobody were incubated with human (ELISA1) and cynomolgous plasma (ELISA2). IC50 values are depicted in Table C-9.

Point of comparison: B11, IC50 0.15 nM. Against it:
- B1 — 12-fold higher, 1.73 nM
- B9 — 7.5-fold higher, 1.12 nM
- B10 — 2.5-fold higher, 0.38 nM
- B2 — 3.9-fold higher, 0.58 nM
- B12 — 250-fold higher, 37.9 nM
- B3 — 3.1-fold higher, 0.47 nM
- B4 — 46-fold higher, 6.9 nM

Target: T2, native soluble IL-6R in human plasma
Experiment: ELISA 3, periplasmic extract; competitor BN-12; human plasma
Settings: not given

Point of comparison: B10, OD450 ratio sample/blank 0.967. Against it:
- B1 — higher, 1
- B9 — higher, 0.993
- B11 — lower, 0.954
- B2 — higher, 0.995
- B12 — higher, 0.99
- B3 — higher, 0.988
- B4 — lower, 0.948

Target: T3, soluble IL-6R in cynomolgous plasma (cynomolgus monkey, UniProt A0A2K5WN54)
Experiment: plasma potency ELISA, purified Nanobody; competitor IL-6; cyno plasma
Settings: not given
Method: as §1, §2

Point of comparison: B4, IC50 13.7 nM. Against it:
- B1 — 5.1-fold lower, 2.7 nM
- B9 — 21-fold lower, 0.66 nM
- B10 — 3.5-fold higher, 47.8 nM
- B11 — 2.1-fold higher, 29.1 nM
- B2 — 22-fold lower, 0.62 nM
- B12 — within 1.5-fold, 14.8 nM
- B3 — 25-fold lower, 0.55 nM

Target: human IL-6R on CHO-K1 cells (clone HuIL6R 4D6) (human, UniProt P08887)
Experiment: FMAT competition; competitor Reference IgG-A647; CHO cells with human IL-6R
Settings: not given
Method: Eleven inhibitory Nanobodies were tested in competition with labelled Reference IgG for binding to CHO cells expressing hIL-6R or cynoIL-6R.

Point of comparison: B1, IC50 37 nM. Against it:
- B13 — 11-fold lower, 3.4 nM
- B2 — higher, > 100 nM
- B12 — higher, > 50 nM
- B3 — 1.7-fold higher, 63 nM
- B4 — higher, > 100 nM

Target: T2, native soluble IL-6R in human plasma
Experiment: ELISA 1, periplasmic extract; competitor IL-6; human plasma
Settings: not given

Point of comparison: B10, OD450 ratio sample/blank 0.215. Against it:
- B1 — higher, 0.959
- B9 — higher, 0.236
- B11 — lower, 0.0894
- B2 — lower, 0.21
- B12 — higher, 1.59
- B3 — lower, 0.138
- B4 — higher, 0.413

Target: T3, soluble IL-6R in cynomolgous plasma
Experiment: ELISA 2, periplasmic extract; competitor IL-6; cyno plasma
Settings: not given

Point of comparison: B8, OD450 ratio sample/blank 0.961. Against it:
- B1 — lower, 0.0819
- B5 — higher, 1.1
- B9 — lower, 0.0289
- B6 — lower, 0.907
- B10 — lower, 0.292
- B7 — higher, 1.09
- B11 — lower, 0.359
- B2 — lower, 0.0402
- B12 — lower, 0.263
- B3 — lower, 0.031
- B4 — lower, 0.175

Target: IL-6R on TF-1 cells (Homo sapiens (Human), UniProt P08887)
Experiment: cell-based or functional assay
Settings: not given

Point of comparison: B3, “IC50, IL-6-dependent proliferation of TF-1 cells (3H-thymidine)” value 5.59 nM. Against it:
- B1 — 2.8-fold higher, 15.6 nM
- B9 — 1.8-fold higher, 10.2 nM
- B10 — within 1.5-fold, 4.05 nM
- B11 — 38-fold lower, 0.149 nM
- B2 — within 1.5-fold, 6.2 nM
- B12 — 260-fold higher, 1470 nM
- B4 — 11-fold higher, 61.3 nM
